Assay results taken from paper PMC3561183, “Discovery of a Siderophore Export System Essential for Virulence of Mycobacterium tuberculosis” (PLoS Pathogens, 2013).

Biological target: T1, Loop L1 of MmpL4 (residues 58-199) (Mycobacterium tuberculosis, UniProt P9WJV3 58-199)
T1 construct: MmpL4 of Mycobacterium tuberculosis, predicted loop L1 between TM1 and TM2, residues 58-199; also called L1 loop of MmpL4; periplasmic loop of MmpL4
T1 sequence: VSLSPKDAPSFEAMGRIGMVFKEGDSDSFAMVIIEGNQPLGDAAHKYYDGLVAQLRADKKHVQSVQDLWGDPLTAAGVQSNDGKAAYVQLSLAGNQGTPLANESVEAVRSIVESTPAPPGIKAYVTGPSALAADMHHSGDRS
Assay: pull-down
Settings: both partners purified

B1: C-terminal soluble domain of MmpS4 (residues 52-140) (domain or fragment)
chain: HLTYEIFGPPGTVADISYFDVNSEPQRVDGAVLPWSLHITTNDAAVMGNIVAQGNSDSIGCRITVDGKVRAERVSNEVNAYTYCLVKSA
notes: MmpS4 (rv0451c) of Mycobacterium tuberculosis, residues 52-140: N-terminally truncated, lacks the predicted transmembrane helix; also called MmpS4_(52-140); water-soluble domain of MmpS4
- binding result: binds
